From doi:10.1101/2025.09.26.678928

Molecular target: UhGpe1 (U. hordei)

Molecule	reporter activity in S. cerevisiae biosensor assays, percent activity [%]
SrPit2 peptide corresponding to the U. maydis activating motif	45
WWFGFTGSL [Pit2 core peptide (…)]	30
